Reference: patent US20050245445A1 (BURNHAM INSTITUTE FOR MEDICAL RESEARCH, published 2005)
Where no end group is shown, it is not given here.

Columns and labels:
[1] = target: PDGFRβ overexpressed on transfected 293T cells; experiment: phage binding to transfected 293T cells, 2 hours at 4° C., bound phage counted by plaque assay
[2] = target: T1, PDGFRβ in RIP1-Tag2 mouse tumor tissue (mouse, UniProt P05622 32-1098); experiment: co-localization of i.v. injected peptide with anti-PDGFRβ immunostaining in RIP1-Tag2 tumor sections
T1 construct: whole, on cells; Endogenous receptor in tissue, seen only by immunostaining; also called PDGFRb (CD140b)
T1 sequence (P05622 32-1098): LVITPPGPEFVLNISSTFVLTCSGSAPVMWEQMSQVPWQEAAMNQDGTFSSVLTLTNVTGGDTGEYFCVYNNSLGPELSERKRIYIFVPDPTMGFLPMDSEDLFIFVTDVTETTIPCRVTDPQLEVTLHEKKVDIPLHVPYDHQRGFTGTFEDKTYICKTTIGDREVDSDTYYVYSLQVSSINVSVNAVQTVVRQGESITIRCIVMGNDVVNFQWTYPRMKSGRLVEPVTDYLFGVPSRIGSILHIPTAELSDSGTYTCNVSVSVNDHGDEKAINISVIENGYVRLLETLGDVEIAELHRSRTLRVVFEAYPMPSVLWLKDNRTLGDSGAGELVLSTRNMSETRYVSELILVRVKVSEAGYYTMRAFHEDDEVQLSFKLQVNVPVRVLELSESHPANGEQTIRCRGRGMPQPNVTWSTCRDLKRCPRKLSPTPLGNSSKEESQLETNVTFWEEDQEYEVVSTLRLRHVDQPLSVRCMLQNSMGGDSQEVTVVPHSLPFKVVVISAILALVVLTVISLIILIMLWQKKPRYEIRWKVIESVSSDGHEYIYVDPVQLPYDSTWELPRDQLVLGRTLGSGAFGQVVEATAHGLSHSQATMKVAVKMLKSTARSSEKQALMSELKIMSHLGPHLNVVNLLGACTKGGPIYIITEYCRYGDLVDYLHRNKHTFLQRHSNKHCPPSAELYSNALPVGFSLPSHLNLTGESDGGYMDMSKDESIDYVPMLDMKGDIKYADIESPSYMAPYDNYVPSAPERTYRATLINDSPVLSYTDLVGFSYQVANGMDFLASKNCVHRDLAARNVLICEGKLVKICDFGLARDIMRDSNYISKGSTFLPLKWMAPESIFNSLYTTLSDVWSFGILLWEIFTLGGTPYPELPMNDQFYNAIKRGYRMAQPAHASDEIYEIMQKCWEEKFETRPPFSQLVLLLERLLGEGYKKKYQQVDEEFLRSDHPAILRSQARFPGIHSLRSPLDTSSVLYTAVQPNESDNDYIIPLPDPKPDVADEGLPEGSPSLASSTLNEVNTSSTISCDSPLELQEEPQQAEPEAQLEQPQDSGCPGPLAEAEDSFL
Experimental: For immunohistochemistry, frozen slides were pre-incubated with blocking buffer (1×PNB from NEN Biosciences) for one hour, washed several times in 1×PBS and incubated with the primary antibody of interest overnight at 4° C. The cell-specific antibodies used were rat monoclonal anti-mouse CD31 (1:200; BD Pharmingen), rat monoclonal anti-mouse MECA-32 (1:200; BD Pharmingen), rabbit polyclonal anti-mouse NG2 (1:200; Chemicon), and rat monoclonal anti-mouse PDGFRb (CD140b) (1:200; eBioscience). The corresponding secondary antibodies; Cy-3 donkey anti-rabbit IgG and Rhodamine Red donkey anti-rat IgG (Jackson ImmunoResearch), were used at a 1:200 dilution and incubated for one hour at room temperature. The following species-matched immunoglobulins were used as negative controls; rabbit IgG (Vector Laboratories) and rat IgG (Jackson ImmunoResearch) at a 1:200 dilution. The slides were washed several times in 1×PBS and mounted in Vectashield Mounting Medium with DAPI (Vector Laboratories). Hematoxylin and eosin (H&E) staining was performed for histological grading of adjacent sections by standard methods, and lesions were graded as previously described (Lopez and Hanahan, 2002).
In contrast, no binding above background was detected toward cells transfected with vascular endothelial growth factor receptor 2 (VEGFR2) (FIG. 5A).

Row | Binder | fold binding to PDGFRβ-transfected cells over non-transfected cells [1] [fold] | binding result [2]
1 | CRGRRST [RGR phage (T7 phage displaying the RGR peptide CRGRRST)] | 20 | –
2 | CRGRRST (also: fluorescein-conjugated (site of attachment not given here), Synthetic linear peptide made by Fmoc chemistry and injected intravenously into RIP1-Tag2 mice; also called RGR-FITC; fluorescein-conjugated CRGRRST peptide) [fluorescein-conjugated RGR peptide (CRGRRST)] | – | binds
